Measurements from publication PMC9000616 (Molecules, 2022).

Target: the molecule itself
Test: AUC; sedimentation velocity, 20 °C, Rayleigh interference optics, c(s) analysis converted into c(M); AtDSEL at 3.0, 1.5 and 0.8 mg/mL; CaPLA1 at 1.1, 0.5 and 0.3 mg/mL

Protein	stoichiometry N
Arabidopsis thaliana DAD1-like seedling establishment-related lipase (enzyme, UniProt O49523 1-419, looked up, AtDSEL, phospholipase A1 of Arabidopsis thaliana, full length, UniProt O49523; A non-native Gly from the TEV site (ENLYFQG) is left at the N-terminus after cleavage; Homodimer by crystal structure and AUC; also called AtDSEL; source: E. coli BL21 (DE3), purified (Ni-NTA, TEV cleavage, Ni-NTA, SEC); not shown: His6, N-terminal, cleaved) MKRKKKEEEEEKLIVTREFAKRWRDLSGQNHWKGMLQPLDQDLREYIIHYGEMAQAGYDTFNINTESQFAGASIYSRKDFFAKVGLEIAHPYTKYKVTKFIYATSDIHVPESFLLFPISREGWSKESNWMGYVAVTDDQGTALLGRRDIVVSWRGSVQPLEWVEDFEFGLVNAIKIFGERNDQVQIHQGWYSIYMSQDERSPFTKTNARDQVLREVGRLLEKYKDEEVSITICGHSLGAALATLSATDIVANGYNRPKSRPDKSCPVTAFVFASPRVGDSDFRKLFSGLEDIRVLRTRNLPDVIPIYPPIGYSEVGDEFPIDTRKSPYMKSPGNLATFHCLEGYLHGVAGTQGTNKADLFRLDVERAIGLVNKSVDGLKDECMVPGKWRVLKNKGMAQQDDGSWELVDHEIDDNEDLDF	2
Capsicum annuum phospholipase A1 homolog (enzyme, UniProt A5YW95 1-397, looked up, CaPLA1, phospholipase A1 of hot pepper (Capsicum annuum), full length, UniProt A5YW95; A non-native Gly from the TEV site (ENLYFQG) is left at the N-terminus after cleavage; Homodimer by crystal structure and AUC; also called CaPLA1; source: E. coli BL21 (DE3), purified (Ni-NTA, TEV cleavage, Ni-NTA, SEC); not shown: His6, N-terminal, cleaved) MGSMAEKWEELSGKNNWEGLLNPLDLDLRKYIIQYGELAQATYDTFISERASKYAGASRYSMENFFTKVGLDPSKYHVTKFFYGTSSIPLPDAFMTRSLSREAWSKESNFMGYIAVATDEGKVALGRRDIVINWRGTLQVLEWVNDLQFLLVPAPKVFGDGGLLPLFHPLVHHGFHNIYTTENPRSQFNKTCVRDQVMEEVKRLVEEYKNEEVSITVTGHSLGASLATLNAVDIAFNGINKSSNGKEFPVTAFVFASPKVGDLNFHKAFSKLKHLHILRIHNLLDIVPKYPPVGYFDVGQELMIDTTKSPYVKPPGEVVSWHLLEPYLHGIAGTQGIGMTAGFKLEVNRDISLVNKQWMILKDEYCIPPLWWSEKHKGMVQQQDGSWLLQDRDDYEF	2
